Common to all, as to assay: BLI
For orientation: In BLI a coated tip is dipped into the sample, and binding shifts an interference pattern.

For assay [1], the target named is T1, H4K8ac (Saccharomyces cerevisiae, acetyl-Lys8 (mature numbering; K9 in UniProt); biotinylated. Limits 1-21 from the pull-down methods; the BLItz peptide is 1-20. Peptide species not given; a commercial vertebrate peptide would have …).
The target in assay [2] is T2, H4K5ac (Saccharomyces cerevisiae, acetyl-Lys5 (mature numbering; K6 in UniProt); biotinylated. Limits 1-21 from the pull-down methods; the BLItz peptide is 1-20. Peptide species not given; a commercial vertebrate peptide would have …).
The target in assay [3] is T3, H4K12ac (Saccharomyces cerevisiae, acetyl-Lys12 (mature numbering; K13 in UniProt); biotinylated. Limits 1-21 from the pull-down methods; the BLItz peptide is 1-20. Peptide species not given; a commercial vertebrate peptide would …).
The target in assay [4] is T1, H4K8ac. This is another data set of the same source.
Assay [5] addresses T2, H4K5ac. This is another data set of the same source.
The target of assay [6] is T3, H4K12ac. The source holds these as a separate data set.

T2 sequence (main, as listed by the source): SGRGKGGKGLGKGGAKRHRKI

B1: Dot1p (disruptor of telomeric silencing-1), MBP tag removed (enzyme)
chain: MGGQESISNNNSDSFIMSSPNLDSQESSISPIDEKKGTDMQTKSLSSYSKGTLLSKQVQNLLEEANKYDPIYGSSLPRGFLRDRNTKGKDNGLVPLVEKVIPPIHKKTNNRNTRKKSSTTTKKDVKKPKAAKVKGKNGRTNHKHTPISKQEIDTAREKKPLKKGRANKKNDRDSPSSTFVDWNGPCLRLQYPLFDIEYLRSHEIYSGTPIQSISLRTNSPQPTSLTSDNDTSSVTTAKLQSILFSNYMEEYKVDFKRSTAIYNPMSEIGKLIEYSCLVFLPSPYAEQLKETILPDLNASFDNSDTKGFVNAINLYNKMIREIPRQRIIDHLETIDKIPRSFIHDFLHIVYTRSIHPQANKLKHYKAFSNYVYGELLPNFLSDVYQQCQLKKGDTFMDLGSGVGNCVVQAALECGCALSFGCEIMDDASDLTILQYEELKKRCKLYGMRLNNVEFSLKKSFVDNNRVAELIPQCDVILVNNFLFDEDLNKKVEKILQTAKVGCKIISLKSLRSLTYQINFYNVENIFNRLKVQRYDLKEDSVSWTHSGGEYYISTVMEDVDESLFSPAARGRRNRGTPVKYTR
Consider B1, for which the koff (in general, the rate constant with which the complex falls apart) turned out to be 0.00237 s⁻¹ with H4K8ac [1], 0.00317 s⁻¹ with H4K5ac [2] and 0.00302 s⁻¹ with H4K12ac [3]. In addition, the dissociation constant Kd (as a rule, a measure of binding affinity in units of concentration) with H4K8ac [4] worked out at 0.0196 µM; with H4K5ac [5] it was 0.0201 µM; with H4K12ac [6] it was 0.0233 µM.
